Measured values: the supplement of paper PMC10724198
± gives the standard deviation of the averaged measurements.

Columns and labels:
Saccharomyces cerevisiae [1] = assay: protein stability index of tFT-peptide fusion (C-terminal peptide) (PSI (0-1 scale)); higher = more stable (slower turnover); settings: genetic background: wild type; temperature: 30 C
Saccharomyces cerevisiae [2] = assay: as above
Experimental: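 MPS profiling in S. cerevisiae of the tFT-X12 degron library: putative degron peptides plus stable controls, 12 aa, fused to the C-terminus of a sfGFP-mCherry timer. Cells are FACS-sorted into 8 mCherry/sfGFP bins and deep-sequenced. PSI runs from 0 (unstable) to 1 (stable). Backgrounds are wild type, das1Δ and doa10Δ at 30 °C, and wild type, das1Δ, cdc34-1 and cdc53-1 at 37 °C; 2-3 technical replicates each.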

[3] = genetic background: cdc34-1, temperature: 37 C
[4] = genetic background: cdc53-1, temperature: 37 C
[5] = genetic background: das1 deletion, temperature: 30 C
[6] = genetic background: das1 deletion, temperature: 37 C
[7] = genetic background: doa10 deletion, temperature: 30 C
[8] = genetic background: wild type, temperature: 30 C
[9] = genetic background: wild type, temperature: 37 C
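Note: PSI is a weighted mean of sequencing reads over stability bins, variants kept only with over 10 reads, mCherry proximal and sfGFP distal, peptide attached via GGGS linker.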

Sequence	protein stability index (Saccharomyces cerevisiae [1])	protein stability index (Saccharomyces cerevisiae [2]; [3])	protein stability index (Saccharomyces cerevisiae [2]; [4])	protein stability index (Saccharomyces cerevisiae [2]; [5])	protein stability index (Saccharomyces cerevisiae [2]; [6])	protein stability index (Saccharomyces cerevisiae [2]; [7])	protein stability index (Saccharomyces cerevisiae [2]; [8])	protein stability index (Saccharomyces cerevisiae [2]; [9])
PWFCYVQLVVPV	0.309 ± 0.0036	0.226 ± 0.02	0.266 ± 0.0075	0.232 ± 0.035	0.349 ± 0.0058	0.188 ± 0.0072	0.221 ± 0.03	0.313 ± 0.0036
FFFFSMFSFFIP	0.477 ± 0.054	0.503 ± 0.056	0.576 ± 0.0068	0.485 ± 0.017	0.564 ± 0.013	0.438 ± 0.013	0.466 ± 0.031	0.531 ± 0.0034
LLILSVRPFVFV	0.43 ± 0.0067	0.479 ± 0.0094	0.52 ± 0.0072	0.397 ± 0.032	0.544 ± 0.0068	0.3727 ± 0.0033	0.367 ± 0.025	0.515 ± 0.022
SIIRHLFHPSST	0.709 ± 0.013	0.67 ± 0.026	0.7184 ± 0.0046	0.643 ± 0.0091	0.72688 ± 9e-05	0.65 ± 0.018	0.659 ± 0.03	0.695 ± 0.018
RSKLGVLVILWF	0.353 ± 0.037	0.288 ± 0.02	0.391 ± 0.011	0.293 ± 0.031	0.466 ± 0.012	0.243 ± 0.016	0.273 ± 0.025	0.448 ± 0.0055
CLFLNCRFYMFL	0.821 ± 0.035	0.951 ± 0.021	0.898 ± 0.065	0.808 ± 0.04	0.89 ± 0.024	0.788 ± 0.014	0.796 ± 0.036	0.905 ± 0.011
WSCVGLWGRFCC	0.448 ± 0.036	0.663 ± 0.033	0.748 ± 0.018	0.637 ± 0.011	0.76 ± 0.013	0.267 ± 0.011	0.299 ± 0.0093	0.57 ± 0.0094
KLCVGLVLSFVC	0.257 ± 0.053	0.47 ± 0.021	0.503 ± 0.043	0.341 ± 0.028	0.5351 ± 0.0032	0.176 ± 0.0034	0.206 ± 0.023	0.3964 ± 0.0008
FLSCSRRPLRCW	0.463 ± 0.027	0.40972 ± 0.00036	0.445 ± 0.048	0.303 ± 0.035	0.4962 ± 0.00098	0.273 ± 0.0051	0.301 ± 0.032	0.469 ± 0.021
FIFYYTVLLLCR	0.181 ± 0.014	0.0366 ± 0.0015	0.0671 ± 0.0072	0.131 ± 0.024	0.171 ± 0.0048	0.13 ± 0.0087	0.115 ± 0.019	0.1312 ± 0.0012
VAFGVASGWCWF	0.488 ± 0.02	0.748 ± 0.048	0.8066 ± 0.0046	0.687 ± 0.016	0.848 ± 0.0032	0.373 ± 0.0093	0.397 ± 0.015	0.6902 ± 0.0057
CLFHQFITLLVN	0.0965 ± 0.019	0.0942 ± 0.009	0.177 ± 0.012	0.222 ± 0.026	0.2692 ± 0.0019	0.0508 ± 0.017	0.0593 ± 0.0052	0.0523 ± 0.01
VEQLLYIKATNV	0.408 ± 0.019	0.689 ± 0.012	0.7025 ± 0.0067	0.6088 ± 0.0057	0.7288 ± 0.0038	0.238 ± 0.029	0.29 ± 0.036	0.5062 ± 0.0015
ISLSSLYVVMYV	0.291 ± 0.024	0.413 ± 0.0072	0.418 ± 0.041	0.227 ± 0.026	0.428 ± 0.011	0.178 ± 0.0094	0.195 ± 0.027	0.3919 ± 0.0016
RRLRPQTVAFLS	0.231 ± 0.04	0.593 ± 0.012	0.717 ± 0.03	0.676 ± 0.021	0.704 ± 0.028	0.159 ± 0.0046	0.176 ± 0.025	0.278 ± 0.0083
RFFVLSFFFLVS	0.282 ± 0.024	0.215 ± 0.013	0.335 ± 0.069	0.224 ± 0.023	0.416 ± 0.014	0.209 ± 0.01	0.212 ± 0.029	0.384 ± 0.0071
ASHLGLGCLVVC	0.491 ± 0.0059	0.601 ± 0.089	0.571 ± 0.045	0.426 ± 0.018	0.604 ± 0.015	0.389 ± 0.028	0.408 ± 0.02	0.579 ± 0.021
VTFWISLVYVLV	0.218 ± 0.011	0.192 ± 0.015	0.264 ± 0.022	0.18 ± 0.023	0.35 ± 0.0028	0.148 ± 0.0088	0.16 ± 0.017	0.279 ± 0.027
FCVLLFCAVSDL	0.317 ± 0.03	0.289 ± 0.032	0.383 ± 0.03	0.239 ± 0.036	0.4433 ± 0.0013	0.212 ± 0.0092	0.24 ± 0.036	0.398 ± 0.0074
